{"source": "the nanobody polyreactivity screen of Harvey et al. (2022)", "data": [{"experiment": "yeast display, Sf9 membrane polyspecificity reagent, FACS + sequencing; frameworks hold sequencing errors", "how_it_was_run": "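Synthetic nanobody libraries on Saccharomyces cerevisiae BJ5465 were galactose-induced for 36–48 hours, stained 1 hour at 4 °C with 10% biotinylated, detergent-solubilized Sf9 membrane reagent and enriched on streptavidin microbeads. FACS then separated cells into low and high (top ~1%) gates by anti-HA (expression) and streptavidin (reagent binding) fluorescence. Genes were colony-PCR amplified, MiSeq 2 × 250 sequenced and CDR-length filtered. A clone's polyreactivity label is that of its gate of origin.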", "values": [{"sequence": "QVQIVESGGGLVQAGGSLRLSCAASGRIFGYNTMGWYRQAPGKERELVASISYYGGGPYYADSVKGRFTISRDLAKYTFYLQMNSLKPEDTAVYYCNALSYGYDDAYGYWGQGTQVTVSS", "polyreactivity (PSR sort gate)": "low polyreactivity"}, {"sequence": "QVQIVESGGGLVQAGGSLRLSCAASGRIFRRYAMGWYRQAPGKEREFVAAISYGGGATYYADSVKGRFTISRDNAKNTFYLQMNSLKPEDTAVYYCNAEVPKSLLLYYPWGYGYWGQGTQVTVSS", "polyreactivity (PSR sort gate)": "low polyreactivity"}, {"sequence": "QVQIVESGGGLVQAGGSLRLSCAASGRIFRVNWIGWYRQAPGKESELVAAIRRSGGSTYYADSVKGRFTISRDNAKNTVYLQMNSLKPEDTAVYFCAAPVRQSSYTRYDSWGQGTQVTVSS", "polyreactivity (PSR sort gate)": "high polyreactivity"}, {"sequence": "QVQIVESGGGLVQAGGSLRLSCAASGRIFVVIAMGWYRQAPGKERELVATITRGASTYADSVKGRFTISRDNAKNTVYLQMNSLKPEDTAVYYCAAAKRPQVVRYDWTKLEYWGQGTQVTVSS", "polyreactivity (PSR sort gate)": "high polyreactivity"}, {"sequence": "QVQIVESGGGLVQAGGSLRLSCAASGRIYRYVMGWYRQAPGKERELVATITGSGGSTYYADSVKGRFTISRDNAKNTAYLQMNSLKPEDTAVYYCAAAGRGSWTTYRFDYWGLGTQVTVSS", "polyreactivity (PSR sort gate)": "high polyreactivity"}, {"sequence": "QVQIVESGGGLVQAGGSLRLSCAASGRNFGRYAMGWYRHAPRKERELVATISSGGSTYYADSVKGRFTISRDNAKNTVYLPMNSLKQEDTAVYYCAADYLSYYLYEGSIKYGYWGQGTQVSVSS", "polyreactivity (PSR sort gate)": "high polyreactivity"}, {"sequence": "QVQIVESGGGLVQAGGSLRLSCAASGRTFLVNSMGWYRQAPGKEMELVAVITNGGSTYADSVKGRFTISRDNAKNTVYLQMNSLKPEDTAVYNCAARGNRWRSPSGSPYYYWGQGTQVTVSS", "polyreactivity (PSR sort gate)": "high polyreactivity"}, {"sequence": "QVQIVESGGGLVQAGGSLRLSCAASGRTIGVYAMGWYRQAPRKERELVAAITGDGTKDYADSVKGRFRFSRAISKITVYLQMNSLKPEDTAVYYCAVGGAGSDDYWGQGTQVTVSS", "polyreactivity (PSR sort gate)": "low polyreactivity"}, {"sequence": "QVQIVESGGGLVQAGGSLRLSCAASGRTYYYAMGWYRQAPGKERELVAAITESGDNTYYADSVKGRFTISRDNAKNTVYLQMNSLKPEDTAVYYCAVDYPSPSYYYEYYYWGQGTQVTVSS", "polyreactivity (PSR sort gate)": "high polyreactivity"}, {"sequence": "QVQIVESGGGLVQAGGSLRLSCAASGSIFGYYVMGWNRQAPGKERELVAAISSGGGNTYYADSVKGRFTISRDNAKNTVYLQMISLKPEDTAVYYCAALRSWRKTGGAQRYWYDYWGHGTQVTVSS", "polyreactivity (PSR sort gate)": "high polyreactivity"}, {"sequence": "QVQIVESGGGLVQAGGSLRLSCAASGSIFPHYAMGWYRQAPGKERELVAAISRGGSTNYADSVKGRFTISRDNAKNTVYLQMNSLKPEDTAVYYCNALRYYSRFLYAVAYRYDYWGQGTQVTVSS", "polyreactivity (PSR sort gate)": "high polyreactivity"}, {"sequence": "QVQIVESGGGLVQAGGSLRLSCAASGSNFLFYVMGWYTQAPVKERELVAAINTGVSTNYADSVKGRFTISRDNAKNTVYLQLNSLKPEDTAVYYCNALPYTSDGRGGYWGQGSQVTVSS", "polyreactivity (PSR sort gate)": "low polyreactivity"}, {"sequence": "QVQIVESGGGLVQAGGSLRLSCAASGSTFGDNAMGWSRQAPGKERELVAAITRSGGSTYYADSVKGRFTISRDTAKNTVYLHMHSLKPEDTAVYYCNADWYFQYPYDYGGQGTQVTVSS", "polyreactivity (PSR sort gate)": "low polyreactivity"}, {"sequence": "QVQIVESGGGLVQAGGSLRLSCAASGSTFLKYTMGWYRQAPGKERELVAAISKSGGSTYYADSVKGRFTISRDNAKNTVYLQMNSLKPEDTAVYYCAIGRSWVSSYGYGYWGQGTQVTVSS", "polyreactivity (PSR sort gate)": "high polyreactivity"}, {"sequence": "QVQIVESGGGLVQAGGSLRLSCAASGSTFNRNAMGWNRQATGKERELVAAITRSASSTYYADSVKGRFTISRDNAKNTVYLQMNSLKPEDTAVYYCAVEYVAYLYRMDYWGQGTQVTVSS", "polyreactivity (PSR sort gate)": "high polyreactivity"}, {"sequence": "QVQIVESGGGLVQAGGSLRLSCAASGSTFPSYAMGWYRQATGKEREWVAAITRSCGRTYYADSVKGRFTISRDNSKHTVYLQMNSLKPEDTAVYYCAADLGSNYDYWGQGTQVTVLS", "polyreactivity (PSR sort gate)": "low polyreactivity"}, {"sequence": "QVQIVESGGGLVQAGGSLRLSCAASGSTFYEYAMGWYRQAPGKERELVATITSGGRTYYADSVKGRFTISRDNAKNTVYLQMNSLKPEDTAVYYCAAAGKGRFHFRSTMDYWGQGSQVTVSS", "polyreactivity (PSR sort gate)": "high polyreactivity"}, {"sequence": "QVQIVESGGGLVQAGGSLRLSCAASGSTLSYYGMGWYRQAPGKERELVAAISTGGRTYYADSVKGRFSISRDNATNTVFLQMTSLKPEDTAVYYCNALYVSYVSRYDYWGQGTQVTVSS", "polyreactivity (PSR sort gate)": "high polyreactivity"}, {"sequence": "QVQIVESGGGLVQAGGSLRLSCAASVFTFGENAMGWYRQAPGKERELVAAITSGDGTSYADSVKGRFTISRDNAKYTVYLQMNSLKPEDTSVYYCAADVGDELYYSTYDYWGQGTQVTVSS", "polyreactivity (PSR sort gate)": "low polyreactivity"}, {"sequence": "QVQIVESGGGLVQAGGSLRLSCAAYGRTFSYYTMGWYRQAPGKERELVARISNRGTNTYYADSEKGRFTISRDNAKNTVYLQMNSLKPEDPAVYYCAKYYSTSIVGYDSWGQGTQVTVSS", "polyreactivity (PSR sort gate)": "low polyreactivity"}, {"sequence": "QVQIVESGGGLVQAGGSLRLSCASSGIIFWPNAMGWYRQAPGKERELVASITSGGYTYYADYVKGRFTISRDNAKNTVYLQMNSLKPEDTAVYYCAAEWYPYGPKRYYWGQGTQVTVSS", "polyreactivity (PSR sort gate)": "low polyreactivity"}, {"sequence": "QVQIVESGGGLVQAGGSLRLSCASSGSTSYRNAMGWYRQAPGKEREFVASISKSTDSTYYADSVKGRFTISRDNAKNTVYLQMLSLKPEDTAVSYCADVQGYKGLQDDSWGQGTQVTVSS", "polyreactivity (PSR sort gate)": "high polyreactivity"}, {"sequence": "QVQIVESGGGLVQAGGSLRLSCDASGFIFYYYAMGWYRQAPGKERELVATITSGGGSTYYADSVKGRFTISRDNAKNTVYLQMNSLKPEDTAVYYCAAKGPYYKSSRTGDYWGQGTQVTVSS", "polyreactivity (PSR sort gate)": "low polyreactivity"}, {"sequence": "QVQIVESGGGLVQAGGSLRLSCDASGSIFNYNAMGWYRQAPGKEREFVAAINQGGTSTYYADSVKGRFTISRDNAKNTVYLQINSLKPEDTAVYYCAALITVYRGSYEYWGQGTQVTVSS", "polyreactivity (PSR sort gate)": "low polyreactivity"}, {"sequence": "QVQIVESGGGLVQAGGSLRLSFAASGSTFVLYAMGWYRPAPGKERELVAAISGGATTTYADSVKGRFTISRDNAKNSVYLQMNSLKPEDTAVYYCAADFYTFVVSGAAMDYWGQGTQVTVSS", "polyreactivity (PSR sort gate)": "low polyreactivity"}, {"sequence": "QVQIVESGGGLVQAGGSLRLTCAASGFTFTDYAMGWYRQAPGIERELVAVITYDSTYYADSVKGRFTISRDNAKNTVSLHMNSLKPEDTAVYYCAADSYDWGEFDYWGQGTQVTVSS", "polyreactivity (PSR sort gate)": "low polyreactivity"}, {"sequence": "QVQIVESGGGLVQAGGSLRLTCAASGSILWYNTMGWYRQAPGKERELVAAIRTSGSRTYYADSVKGRFTISRDNAKNTVYVQMNSLKPEDTAVYYCAAERGSQRVRSGYWGQGTQVTVSS", "polyreactivity (PSR sort gate)": "high polyreactivity"}, {"sequence": "QVQIVESGGGLVQAGGSLRVSCAASGRTFRLYAMGWYRQAPGKERELVAAITRGGRTNYADSVKGRFTISRDNAKYTVYLHMNSLKPEDTAVYYCAARYVERHTDYYYWGQGSQVTVSS", "polyreactivity (PSR sort gate)": "low polyreactivity"}, {"sequence": "QVQIVESGGGLVQAGGSLRVSCAPSGRTFLPYGMGWYRQAPGKEWELVASITSGGSTNYADSVKGRFTISRDNAQNTVYLQMNSLKPEDTAVYYCNKQTIPEWPWVKYSNGYDHWGHGTQVTVSS", "polyreactivity (PSR sort gate)": "low polyreactivity"}, {"sequence": "QVQIVESGGGLVQAGGSLSLSCAASGFTLVGYAMGWYRQAPGKERELVAAISSGGRTKYADSVKGRFTISRDNAKNTVYLQMNSLKPEVTAVFYCAAPYNVRWRYGYWGQGTQVTVSS", "polyreactivity (PSR sort gate)": "high polyreactivity"}, {"sequence": "QVQIVESGGGLVQAGGSLSLSCAASGRTFQRNAMGWYRQAPGKERELVAAITTGSRTYYADSVKGRFTISRDNAKNTVYLQMNSLKPEDTAVYYCAAVATRRDYGYWGQGTQVTVLS", "polyreactivity (PSR sort gate)": "high polyreactivity"}, {"sequence": "QVQIVESGGGLVQAGRSLRLSCAASGIIFDHYAMGWYRQAPGKERELVAAITTGGGNTYYADSVKGRFTISRDNAKNTVYLQMNCLKPEDTAVYYCNDDGLWGRRWGDYYGYDYWGQGTQVTVSS", "polyreactivity (PSR sort gate)": "low polyreactivity"}, {"sequence": "QVQIVESGGGLVQAGVSLRLSCAPSGFIFSVYAMGWYRQAPGKEMELVAGITRNGGITYYADSVKWRFTISRDNAKNTVYLQMNSLKPEDSAVYYCAAQAPKRRPFYGYYWGQGTQVTVSS", "polyreactivity (PSR sort gate)": "high polyreactivity"}, {"sequence": "QVQIVESGGGLVQEGGSLRISCAASGFTFTANAMGWYRQAPGKERELVAAITRNGGRTYYADSVKGRFTISRDNAKNTVYFQMNSLKPEDTAVYYCAKPTSQRIHDDYDYWGQGTQVTVSS", "polyreactivity (PSR sort gate)": "high polyreactivity"}, {"sequence": "QVQIVESGGGLVQEGGSLRLSFAASGSTFYYYPMGWYRQAPGKERELVAAITSGDTTNYADSVKGRFTISRDNAKNTVYLQMNSLKPEDTAVYYCAVDLNTTAFYPVAATYLDDYWGQGTQVTVSS", "polyreactivity (PSR sort gate)": "low polyreactivity"}, {"sequence": "QVQIVESGGRLDQAGGILRLSCAASGRTFTVNAMGWNRQAPGKERELVATIRSGGTTNYAASVKGRFTISRDNAKNTVYLTMNRLKPEDTAVYYCNARVLTRTSVVRYYYWGQGTQVTVSS", "polyreactivity (PSR sort gate)": "high polyreactivity"}, {"sequence": "QVQIVESGGRLVQAAGRLSLTCAASGSIFVWNAMGWYRQEPGKEREVVAAITNIGGRTYYADSVKGRFTISRDNAKYTVYLQMNSQKPEATAGYYCNSDLVSRLGWSTTSDSWGQGTQVTVSS", "polyreactivity (PSR sort gate)": "high polyreactivity"}, {"sequence": "QVQIVESGGVLDHAGGSLRLSCAATVGTSIPNAMGWYRQAPGKERELVAAITRSGGRTYYADSVKGRFTISRDNATNTVYLQMNSLKREDTAVYYCAARVRTTSVRGRYDYWGQGTQVTVSS", "polyreactivity (PSR sort gate)": "high polyreactivity"}, {"sequence": "QVQIVESGGVLVQAGGSLRLSCAASGSITYFNAMGWYRQAPGKERELVAAISYSGGSTYYADSVKGRFTISRDNAKNTVYLQMNSLKPEDTAVYYCAADRLIGWRKTYYYWGQGTQVTVSS", "polyreactivity (PSR sort gate)": "high polyreactivity"}, {"sequence": "QVQIVESGRGLVQAGGSLRLSCAASGSTFKYYAMGWYIQAPGKERELVAAISWTGGSTYYADSVKGRFTISRDNAKNTVYLQMNSLKPEDTAVYYCNALGHVQGYDYWGQGTQVTVSS", "polyreactivity (PSR sort gate)": "high polyreactivity"}]}]}
